Residue numbers refer to the chain shown, from its start. Names may count otherwise.
Experiments:
[1] = biological target: the molecule itself; test: crystal structure; selenomethionine-substituted crystals grown at 4°C in 2.8 M sodium formate, protein 1.2 mg/mL, stoichiometric addition of the DNA oligomer hTel12 (not visible in the model); SAD, 1.9 Å
[2] = biological target: the molecule itself; test: crystal structure; native crystals grown at 21°C, hanging drop, protein 2.2 mg/ml, 100 mM HEPES (pH 7.2), 20% PEG 3350; molecular replacement, 2.2 Å
Pur-alpha 56-287 (C272S) [3] = biological target: T1, Pur-alpha 56-287 (C272S) (human, UniProt Q00577 56-287, C272S); test: filter binding; protein 0-10 uM; 2.5 mM MgCl2; 100 mM NaCl, 10 mM HEPES pH 8.0, 2.5 mM MgCl2, 1 mM DTT; 0.5 nM labeled oligo, 0-10 uM protein, 20 min, room temperature; settings: protein: recombinant; tags: GST removed by protease (tag cleaved); chain copies: 2; label: 5'-32P; single strand
T1 sequence: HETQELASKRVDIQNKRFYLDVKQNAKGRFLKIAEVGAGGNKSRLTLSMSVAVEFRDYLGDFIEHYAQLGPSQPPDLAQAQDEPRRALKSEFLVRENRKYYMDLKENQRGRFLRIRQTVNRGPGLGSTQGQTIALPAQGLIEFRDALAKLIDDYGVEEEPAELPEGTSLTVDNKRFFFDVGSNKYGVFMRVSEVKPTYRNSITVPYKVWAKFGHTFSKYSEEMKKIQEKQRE

Pur-alpha 56-287 (C272S) [4] = biological target: T1, Pur-alpha 56-287 (C272S); test: filter binding; replicates 207, 258; 2.5 mM MgCl2; 100 mM NaCl, 10 mM HEPES pH 8.0, 2.5 mM MgCl2, 1 mM DTT; 0.5 nM labeled oligo, 0-10 uM protein, 20 min, room temperature; settings: protein: recombinant; tags: GST removed by protease (tag cleaved); chain copies: 2; label: 5'-32P; single strand
Pur-alpha 56-287 (C272S) [5] = biological target: T1, Pur-alpha 56-287 (C272S); test: filter binding; replicates 491, 438, 306; 2.5 mM MgCl2; 100 mM NaCl, 10 mM HEPES pH 8.0, 2.5 mM MgCl2, 1 mM DTT; 0.5 nM labeled oligo, 0-10 uM protein, 20 min, room temperature; settings: protein: recombinant; tags: GST removed by protease (tag cleaved); chain copies: 2; label: 5'-32P; single strand

B1: selenomethionine-substituted B. burgdorferi Pur-α 8–105 (L17M, F27M, I64M) (domain or fragment)
chain: ERGEVYSEKMFTESERTYFMNVKENRKGDYFLNIVESKRSPSGDFERHSIFVYEENMNEFESNLLKAIAVIKQKVSTGSVGSSARHNKGYGEYGERSK
modifications: selenomethionine-substituted (methionines introduced at positions 17, 27 and 64; no other methionines in this fragment)
notes: Expressed from the pGEX6p1 vector (BamHI/XhoI); Only amino acids 8 to 84 are visible in the electron density; also called SeMet; selenomethionine-derivatized protein; source: E. coli BL21, purified (glutathione column, protease cleavage, Q column, heparin column, size-exclusion chromatography)
**Q.** B1 was tested. Which “stoichiometry N” value [1] did it give?
**A.** 2

B2: B. burgdorferi Pur-α 8–105 (domain or fragment, Borrelia burgdorferi B31, UniProt O51076-2 8-105, looked up)
chain: B1 chain with M10L, M20F, M57I
notes: Pur-α (hypothetical protein BB0047) of Borrelia burgdorferi B31, 127-amino acid gene product, amino acids 8 to 105; Expressed from the pGEX6p1 vector (BamHI/XhoI); also called native protein; BB0047 fragment; source: E. coli BL21, purified (glutathione column, protease cleavage, Q column, heparin column, size-exclusion chromatography)
**Q.** Does B2 bind [2]?
**A.** binds

B3: Control (ssDNA)
DNA: CCTCCGCCTCCG
**Q.** Does B3 bind (Pur-alpha 56-287 (C272S) [3])?
**A.** no binding

B4: JCVupTAR (ssDNA)
DNA: GGAGGGGGAGGC
**Q.** With B4 as the binder, how does the Kd (Pur-alpha 56-287 (C272S) [4]) read?
**A.** 0.233 ± 0.036 µM

B5: hTel12 (ssDNA)
DNA: AGGGTTAGGGTT
**Q.** Which Kd (Pur-alpha 56-287 (C272S) [5]) does the source give for B5 here?
**A.** 0.411 ± 0.095 µM

Reference: PMC2954813, “Of Bits and Bugs — On the Use of Bioinformatics and a Bacterial Crystal Structure to Solve a Eukaryotic Repeat-Protein Structure” (PLoS ONE, 2010)
